Assay results from PMC2094093.

Target: Human Hsp90β (human) (UniProt P08238)
Assay: SEC

Chain of Human Hsp90β, P08238 1-724 (natural protein; other documents disagree on this pair) (P08238 whole entry): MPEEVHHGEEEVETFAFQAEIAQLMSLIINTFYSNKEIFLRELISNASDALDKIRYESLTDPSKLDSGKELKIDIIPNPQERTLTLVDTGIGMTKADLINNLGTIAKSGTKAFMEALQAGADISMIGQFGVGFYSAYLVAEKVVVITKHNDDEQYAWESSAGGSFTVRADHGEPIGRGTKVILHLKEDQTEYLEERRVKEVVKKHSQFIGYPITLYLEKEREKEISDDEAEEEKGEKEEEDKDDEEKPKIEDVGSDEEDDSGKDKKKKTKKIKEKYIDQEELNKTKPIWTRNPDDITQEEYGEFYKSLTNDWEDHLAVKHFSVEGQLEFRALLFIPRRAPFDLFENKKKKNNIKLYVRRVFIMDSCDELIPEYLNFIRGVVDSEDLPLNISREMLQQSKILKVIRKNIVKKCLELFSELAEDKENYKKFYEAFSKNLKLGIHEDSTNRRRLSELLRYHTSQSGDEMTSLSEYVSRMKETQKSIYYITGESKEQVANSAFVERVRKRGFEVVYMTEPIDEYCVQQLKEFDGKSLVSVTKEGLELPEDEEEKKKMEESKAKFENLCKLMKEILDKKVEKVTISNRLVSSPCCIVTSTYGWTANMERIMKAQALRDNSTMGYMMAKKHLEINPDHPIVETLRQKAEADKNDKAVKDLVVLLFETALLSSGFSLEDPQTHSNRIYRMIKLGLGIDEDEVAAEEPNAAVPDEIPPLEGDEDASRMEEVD

Human Hsp90β, P08238 1-724 (natural protein; other documents disagree on this pair)
stoichiometry N: 2
